Data on four molecules can be found in patent US20220127304A1.

Assay [1] concerns the target human IgG1 (human). Briefly: SPR, Biacore X-100, human IgG1 on the chip, single cycle kinetics. A general note: SPR reads the build-up and loss of mass on a sensor chip optically.
The target in assay [2] is human serum-derived IgG polyclonal antibody (WAKO) (human). Put plainly: affinity column breakthrough, scFv immobilized on HiTrap NHS-activated HP.
Assay [3] has the same target. Briefly: affinity column breakthrough, scFv immobilized on HiTrap NHS-activated HP; average of Reference Examples 1-1 and 1-2.
The target is the same in assay [4]. Briefly: affinity column breakthrough, scFv immobilized on HiTrap NHS-activated HP (33.6 mg).

B1: R3-26 repCK+K (scFv)
scFv: QEQLVESGGGLVTPGGTLTLTCTVSGIDLSSYAMSWVRQVPGEGLEWIGIIGSGGGTAYANWARGRFTISRTSSTTVDLRMTSLTTEDTATYFCATDYGIYGYAYGHLWGPGTLVTVTSGGGGSGGGGSGGGGSELVMTQTASPVSAAVGGTVTINCQASQSISTALAWYQQRPGQPPRLLIYDASTLASGVSSRFSGSGSGTEFTLTISDLESADAATYYCQTYFGSDTDNAFGEGTEVEITGSAAAGGGGSKIEHHHHHH
In the case of B1, in assay [1], the Kd worked out at 1.6 nM, the koff is 9.1e-05 s⁻¹ and the on-rate (kon) stood at 56000 M⁻¹ s⁻¹. The [10% DBC (mg/mL) at flow rate of 1.0 mL/min]/[amount of protein immobilized on column (mg)] in assay [2] was 0.625 (mg/mL)/mg.

B2: R3-26 repCK+ori6K+VH4KVL4K (scFv)
scFv: QEQLVESGGGLVKPGGTLTLTCTVSGIDLSSYAMSWVRQVPGKGLEWIGIIGSGGGTAYANWARGRFTISRTSSTTVDLRMTSLTTEDTATYFCATDYGIYGYAYGHLWGPGTLVTVTKKKKKGGGGSGGGGSGGGGSELVMTQTASPVSAKVGGTVTINCQASQSISTALAWYQQKPGQPPRLLIYDASTLASGVSSRFSGSGSGTEFTLTISDLESADAATYYCQTYFGSDTDNAFGEGTEVEIKKKKKGSAAALEHHHHHH
As to B2, in assay [1], the Kd is 0.053 nM, the koff worked out at 1.6e-05 s⁻¹ and the kon worked out at 300000 M⁻¹ s⁻¹.

B3: single-chain antibody R3-26 (scFv)
scFv: QEQLVESGGGLVKPGGTLTLTCTVSGIDLSSYAMSWVRQVPGKGLEWIGIIGSGGGTAYANWAKGRFTISKTSSTTVDLKMTSLTTEDTATYFCATDYGIYGYAYGHLWGPGTLVTVTSGGGGSGGGGSGGGGSELVMTQTASPVSAAVGGTVTIKCQASQSISTALAWYQQRPGQPPKLLIYDASTLASGVSSRFKGSGSGTEFTLTISDLECADAATYYCQTYFGSDTDNAFGEGTEVEITGSAAALEHHHHHH
For B3, in assay [1], the Kd came to 2.1 nM, the koff came out at 4.3e-05 s⁻¹ and the kon was 21000 M⁻¹ s⁻¹. The [10% DBC (mg/mL) at flow rate of 1.0 mL/min]/[amount of protein immobilized on column (mg)] in assay [3] is 0.736 (mg/mL)/mg.

B4: R3-26 repCK+ori6K (scFv)
scFv: QEQLVESGGGLVKPGGTLTLTCTVSGIDLSSYAMSWVRQVPGKGLEWIGIIGSGGGTAYANWARGRFTISRTSSTTVDLRMTSLTTEDTATYFCATDYGIYGYAYGHLWGPGTLVTVTKGGGGSGGGGSGGGGSELVMTQTASPVSAKVGGTVTINCQASQSISTALAWYQQKPGQPPRLLIYDASTLASGVSSRFSGSGSGTEFTLTISDLESADAATYYCQTYFGSDTDNAFGEGTEVEIKGSAAALEHHHHHH
Consider B4, for which, in assay [4], the [10% DBC (mg/mL) at flow rate of 1.0 mL/min]/[amount of protein immobilized on column (mg)] is 0.777 (mg/mL)/mg. In assay [1], this molecule registered a Kd of 0.79 nM, an off-rate (koff) of 6.2e-05 s⁻¹ and a kon of 79000 M⁻¹ s⁻¹.

The term Kd denotes the equilibrium constant for the complex coming apart. A low value points to a tighter complex. The koff is the first-order rate constant of dissociation. Lower therefore signals a long-lived complex. A word on the kon: it is the rate constant with which the complex forms. Higher therefore signals faster complex formation.
